# Laboratory results published in US8574601B2, “Sustained-release polymer micelle disruptable by HDL” (Nanocarrier Co., Ltd., priority 2010, dated 2013).
# B1: G-CSF: G-CSF solution (100 μg/mL) administered directly (protein, UniProt P09919 31-207, looked up)
# Granulocyte …: TPLGPASSLPQSFLLKCLEQVRKIQGDGAALQEKLVSECATYKLCHPEELVLLGHSLGIPWAPLSSCPSQALQLAGCLSQLHSGLFLYQGLLQALEGISPELGPTLDTLQLDVADFATTIWQQMEELGMAPALQPTQGAMPAFASAFQRRAGGVLVASHLQSFLEVSYRVLRHLAQP
# Experiment: Rat intravenous administration test of polymer micelle encapsulating G-CSF (Example 1), plasma G-CSF concentration
# Type: in vivo
# Settings: 100 μg/kg i.v. tail vein, male Wistar rats; FIG. 3
# Method: PEG-pGlu (10-40, 30% Chol) was used as a block copolymer. The block copolymer was weighed in a vial. A 20 mM 2-morpholinoethanesulfonic acid monohydrate (MES) buffer (pH 5) was added thereto so as to achieve a polymer concentration of 2 mg/mL and the mixture was vigorously stirred at 4° C. overnight. The polymer solution was subjected to ultrasonic irradiation (in an ice water bath, Low, interval of 1 second, 10 minutes) using a biodisruptor (High Power Unit manufactured by NIHONSEIKI KAISHA LTD.) and then treated with a 0.22-μm membrane filter. Thus, an empty micelle solution having a polymer concentration of 2 mg/mL was obtained. […]
# The solution of the polymer micelles encapsulating G-CSF obtained above was administered to male Wistar rats via the tail vein. […] The plasma G-CSF concentration was measured using a G-CSF-ELISA kit (manufactured by RayBiotech, Inc.). […]
# FIG. 3 illustrates the results of Example 1 (average±SD). FIG. 3 also illustrates theoretical values for the time-course of plasma concentration of a mixed polymer micelle (1:1), which theoretical values were calculated from the results of the time-courses of the plasma concentration of the test examples using PEG-pGlu (10-40, 30% Chol) and PEG-pGlu (10-40, 60% C8).
molecule,measurement,value
B1,retention time in plasma,extremely short
